{"source": "paper PMC11789008", "about": "(Proceedings of the National Academy of Sciences of the …, 2025)", "key": {"[1]": {"target": "SARS-CoV-2 spike ectodomain trimer with the BA.2-type RBD (SARS-CoV-2) (UniProt P0DTC2)", "assay": "cryo-EM structure"}, "[2]": {"target": "SARS-CoV-2 spike RBD, WT (Severe acute respiratory syndrome coronavirus 2, UniProt P0DTC2)", "assay": "biochemical"}, "[3]": {"conditions": "powder and solution form"}, "[4]": {"target": "SARS-CoV-2 spike ectodomain trimer with the BA.5-type RBD (SARS-CoV-2) (UniProt P0DTC2)", "assay": "cryo-EM structure"}}, "note": "No end group written: not given here."}
{"substance": "SARS-CoV-2 spike ectodomain trimer with the BA.2-type RBD (from UniProt P0DTC2 13-1208) (domain or fragment)", "values": [{"measurement": "stoichiometry N", "setting": "[1]", "result": 3}]}
{"substance": "DKLWILQKIYEIMVRLDEEGHGEASLMVSDLIYEFMKRD [CeSPIACE]", "values": [{"measurement": "Kd", "setting": "[2]", "result": "0.246 ± 0.002", "unit": "nM"}, {"measurement": "stability", "setting": "[3]", "result": "stability has been confirmed in powder and solution form"}]}
{"substance": "SARS-CoV-2 spike ectodomain trimer with the BA.5-type RBD (from UniProt P0DTC2 13-1208) (domain or fragment)", "values": [{"measurement": "stoichiometry N", "setting": "[4]", "result": 3}]}
